How the values were obtained:
Assay in all cases: In-vitro kinetic assay with purified recombinant GCase
Assay type in all cases: biochemical
Conditions in all cases: other: 30° C., citrate-phosphate buffer 150 mM, pH 5.4, 0.25% taurodeoxycholate, GCase 2.5 nM
[1] = substrate: COc1cc(/N=N/c2ccc(C)cc2[N+](=O)[O-])c(C)cc1/N=N/c1ccc(N(C)CCCC(=O)NCCCO[C@@H]2O[C@H](COCc3cn(CCCNC(=O)[C@H](CCCCN(C)C)NC(=O)CCC4=[N+]5C(=Cc6c(C)cc(C)n6[B-]5(F)F)C=C4)nn3)[C@@H](O)[C@H](O)[C@H]2O)cc1
Procedure: (§1) In-vitro kinetic assay for substrate 1. Continuous assays were performed at 30° C. in citrate-phosphate buffer (150 mM; pH 5.4) containing 0.25% taurodeoxycholate. The concentrations of substrate 1 used in assays were 0.39, 0.78, 1.56, 3.13 6.25, 12.5, 25 and 50 μM. Reactions were initiated by the addition of purified recombinant GCase (2.5 nM, R&D Systems) and the reaction was monitored continuously over 1200 seconds to determine the initial rate of change of fluorescence. Standard curves were constructed using BODIPY® Fl-acid using the same buffer conditions. […] Assays were carried out in triplicate.
as §1, with “Comparative In-vitro” for “In-vitro”, “substrate 3 and 9b.” for “substrate 1.”, “of substrates 3 and 9b” for “of substrate 1”, “were 0.156, 0.313, 0.625, 1.25, 2.5, 5, 10,” for “were 0.39, 0.78, 1.56, 3.13 6.25, 12.5, 25”, “and 20” for “and 50”, “using TAMRA and BODIPY-576” for “using BODIPY® Fl-acid”

[2] = substrate: COc1cc(/N=N/c2ccc([N+](=O)[O-])cc2)c(OC)cc1/N=N/c1ccc(N(C)CCCC(=O)NCCc2ccc(O[C@@H]3O[C@H](COCCCCn4cc(CNC(=O)[C@H](CCCCN(C)C)NC(=O)c5ccc(-c6c7ccc(=[N+](C)C)cc-7oc7cc(N(C)C)ccc67)c(C(=O)O)c5)nn4)[C@@H](O)[C@H](O)[C@H]3O)cc2)cc1
Procedure: as §1
as §1, with “Comparative In-vitro” for “In-vitro”, “substrate 3 and 9b.” for “substrate 1.”, “of substrates 3 and 9b” for “of substrate 1”, “were 0.156, 0.313, 0.625, 1.25, 2.5, 5, 10,” for “were 0.39, 0.78, 1.56, 3.13 6.25, 12.5, 25”, “and 20” for “and 50”, “using TAMRA and BODIPY-576” for “using BODIPY® Fl-acid”

[3] = substrate: COc1cc(/N=N/c2ccc([N+](=O)[O-])cc2)c(OC)cc1/N=N/c1ccc(N(C)CCCC(=O)NCCCO[C@@H]2O[C@H](COCc3cn(CCNC(=O)CCC4=[N+]5C(=Cc6ccc(-c7ccc[nH]7)n6[B-]5(F)F)C=C4)nn3)[C@@H](O)[C@H](O)[C@H]2O)cc1
Procedure: as §1
as §1, with “Comparative In-vitro” for “In-vitro”, “substrate 3 and 9b.” for “substrate 1.”, “of substrates 3 and 9b” for “of substrate 1”, “were 0.156, 0.313, 0.625, 1.25, 2.5, 5, 10,” for “were 0.39, 0.78, 1.56, 3.13 6.25, 12.5, 25”, “and 20” for “and 50”, “using TAMRA and BODIPY-576” for “using BODIPY® Fl-acid”

B1: purified recombinant GCase (Homo sapiens) (protein)
chain: ARPCIPKSFGYSSVVCVCNATYCDSFDPPTFPALGTFSRYESTRSGRRMELSMGPIQANHTGTGLLLTLQPEQKFQKVKGFGGAMTDAAALNILALSPPAQNLLLKSYFSEEGIGYNIIRVPMASCDFSIRTYTYADTPDDFQLHNFSLPEEDTKLKIPLIHRALQLAQRPVSLLASPWTSPTWLKTNGAVNGKGSLKGQPGDIYHQTWARYFVKFLDAYAEHKLQFWAVTAENEPSAGLLSGYPFQCLGFTPEHQRDFIARDLGPTLANSTHHNVRLLMLDDQRLLLPHWAKVVLTDPEAAKYVHGIAVHWYLDFLAPAKATLGETHRLFPNTMLFASEACVGSKFWEQSVRLGSWDRGMQYSHSIITNLLYHVVGWTDWNLALNPEGGPNWVRNFVDSPIIVDITKDTFYKQPMFYHLGHFSKFIPEGSQRVGLVASQKNDLDAVALMHPDGSAVVVVLNRSSKDVPLTIKDPAVGFLETISPGYSIHTYLWRRQ
notes: purchased R&D Systems
[1]
  kcat/Km: 1300 ± 33 M⁻¹ s⁻¹
[2]
  kcat/Km: 22670 M⁻¹ s⁻¹
[3]
  kcat/Km: 4350 M⁻¹ s⁻¹
